Measured values as given in the nanobody polyreactivity screen of Harvey et al. (2022).

Assay: yeast display, Sf9 membrane polyspecificity reagent, FACS + sequencing; frameworks hold sequencing errors
Method in brief: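 Using colony PCR, genes from sorted yeast display clones were amplified, then sequenced on MiSeq at 2 × 250 and filtered by CDR length. The clones had been stained with 10% biotinylated, detergent-solubilized Sf9 membrane reagent for 1 hour at 4 °C and sorted by FACS into low and high (top ~1%) gates on anti-HA and streptavidin fluorescence. Polyreactivity labels come from the gate of origin.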

Row | Sequence | polyreactivity (PSR sort gate)
1 | QVQLVESGGGLVQAGGSLRLSCAASGIIFYYYAMGWYRQAPGTERELVARISLSGGSTYYADSVKGRFTISRDNAKNTVYLQMNSLKPEDTAVYYCATRSWYKRQTYDYWGQGTQVTVSS | high polyreactivity
2 | QVQLVESGGGLVQAGGSLRLSCAASGSIFWIYAMGWYRQAPGKERELVATITRRGGSTYYADSVKGRFTISRDNAKNTVYLQMNSLKPEDTAVYYCATEPGYTFLTSYKYDYWGQGTQVTVSS | low polyreactivity
3 | QVQLVESGGGLVQAGGSLRLSCAASGRIFYPNAMGWYRQAPGKERELVAGISSGGSTYYADSVKGRFTISRDNAKNTVYLQMNSLKPEDTAVYYCAARVYAHTSRRFLKYDYWGQGTQVTVSS | high polyreactivity
4 | QVQLVESGGGLVQAGGSLRLSCAASGGIFIRYAMGWYRQAPGKEREFVAAIRWRGTNTYYADSVKGRFTISRDNAKNTVYLQMNSLKPEDTAVYYCAARPYYITRYKGMDYWGQGTQVTVSS | high polyreactivity
5 | QVQLGESGGGLVQAGGSLRLSCAASGGTYTHYGMGWYRQATGKERELVAAITWTASSTYYADSVKGRFTISRDNAKNTVYLQMNSLKPEDTAVYYCATSYYYWGHTYDYWGQGTQVTVSS | low polyreactivity
6 | QVQLVESGGGLVQAGGSLRLSCAASGRIFRKYDMGWYRPAPGKERELVAAISGTGITYYADSVKGRFTISRDNAKNTVYLQMNSLKPEDTAVYYCARGSKPRAWSWAYPSATSIYDYWGQGTQVTVSS | low polyreactivity
7 | QVQLVESGGGLVQAGGSLRLSCAASGSIFARYAMGWYRQAPGKERELVAAISSDGSTYYADSVKGRFTISRDNEKNTVYLQMNSLKPEDTAVYYCNTQFRYPQKYDYWGQGTQVTVSS | high polyreactivity
8 | QVQLVESGGGLVQAGGSLRLSCDASGLIFITYAMRWYRQAPGKERELVATITLRGGSTYYADSVKGRFTISRDNAKNTVYLQMNSLKPEDTAVYYCAAEVGYWGRSRGYPSDDYDYCGQGTQVTVSS | low polyreactivity
9 | QVQLVESGGGLVQAGGSLRLSCAASGSTFFGYVMGWDRQAPGKERELVAAIRSSGGSTYYADSVKGRFTISRDNAKNTVYLQINSLKPEDTAVYYCAASYRYDAYSHYDYWGQGTQVTVSS | low polyreactivity
10 | QVQLVESGGGLVQAGGSLRLSCAASGSIFPPYVMGWYRQAPGKERELVASITTSGGSTYYADSVKGRFTISRDNAKNTVYLQMNSLKPEDTAVYYCAARWYYGGKSAGPGGGYWGQGTQVTVSS | low polyreactivity
11 | QVQIVESGGGLVQAGCSLRLSCAASGNIFRGYTMGWYRQAPGKEWELVATITWNGVSTFYADSVKGRFTISRDNAKNTGYLQMNSLKPEDTAVYYCAAYYPSHDYSGFGSDTYEYWGQGTQVTVSS | low polyreactivity
12 | QVQLVESGGGLVQAGGSLRLSCAASGRTFSPYMGWYRQAPGKEGELVAAISKSGGRTYYADSVKGRFTISRDNAKNTVYLQMNSLKPEDTAVYYCATTGNNYYYALYGYWGQGTQVTVSS | low polyreactivity
13 | QVQLVESGGGLVQAGGSLRLSCAASGFTFDNYVMGWYRQAPGKERELVAAISKSGTSTYYADSVKGRFTISRDNAKNTVYLQMNSLKPEDTAVSYCAARQYSQEPYDYWGQGTQVTVSS | high polyreactivity
14 | QVQLVESGGGLVQAGGSLRLSCAASGSIFADYAMGWYRQAPGKERELVAAITSGGSTYYADSVKGRFTISRDNAKNTVYLQKNSLKPEDTAVYYCAADWAFSRFAYQTDIYEYWGQGTQVTVSS | low polyreactivity
15 | QVQLVESGGGLVQAGGSLRLSCAASGRTFERYAMGWYRQAPGKERELVAAITSGGSTYYADSVKGRFTISRDNAKNTVYLQMNSLKPEDTAVYYCATSNWWGYDYWGQGTQVTVSS | high polyreactivity
16 | QVQLVESGGGLVQAGGSLRLSCAASGRTFFRYAMGWYRQAPGKERELVAAITRGGSTNYADSVKGRFTISRDNAKNTVYLQMNSLKPEDTAVYYCAKTTFSYRGHYYWGQGTQVTVSS | high polyreactivity
17 | QVQLVESGGGLVQAGGSLRLSCAASGSTFTRNAMGWYRQAPGKEWELVAAITSSGGSTYYAASVKGRFTISRDNAKNTVYLQMNSLKPEDNAVYYCAAYPHRPRDPELDHWGQGTQVTVSS | low polyreactivity
18 | QVQLEESGGGLVQAGGTLRLSCAACGRTFYRYAMGWYRKAPGKERQLVAAISASGGITYYADSVKGRFTISRDNAKNNVYLQMNSLKADDTAVYYCAVRYNPWYGNYDYWGQGTQVTVSS | high polyreactivity
19 | QVQLVESGGRLVQAGGSLRLTLAASGNTRGSYAMGWYRQAPGKEREFVATISKRGGSTYYADSVKGRFTISRDNAKNTVYLQMNSLKPEDTAVYYCNKDPYSIYRPGSGQGYAFNYWGQGTQVTVSS | high polyreactivity
20 | QVQLVESGGGLVQAGGSLRLSCAASGFTFYKNAMGWYRQAPGKERELVATISSGGSTYYADSVKGRFTISRYNAKNTVYLQLNSLKPEDTAVYYCAARVHHGYYSISYYYWGQGTQVTVSS | high polyreactivity
21 | QVQLVESGGGLVQAGGSLRLSCAASGSIFGPYAMGWYRQAPGKERELVAANTWTGGRTYYSDSVKGRFTISRDNAKNTVYLQMNSLKPEDTAVYYCAVRHRYTRAYWGRDYWGQGTQVTVSS | low polyreactivity
22 | QVQLVESGGGLVQAGGSLRLSCAASGFTFYLYTMGWYRQAPGKERELVATITSDGGTNYADSVKGRFTISRDNAKNTVYLQMNSLKPEDTAVYYCNAASRRGSRKQAKYDYWGQGTQVTVSS | low polyreactivity

Row | Sequence | polyreactivity (PSR sort gate)
23 | QVQLVESGGGLVQAGGSLRLSCAASGRISQYNAMGWYRQAPGKERELVATITRGGSTYYADSVKGRFTISRDNAKNTVYLQMNSLKPEDTAVYYCATDRYWWSGFDYWGQGTQVTVSS | high polyreactivity
24 | KVQLVESGGGLVQAGGSLRLSCAASGGTFYRYAMGWYRQAPGKERELVAAITSGSSTYYADSVKGRFTISRDNAKNTVYLQMNSLKPEDTAVYYCAAARYSRLSRTRPGKYGYWGQGTQVTVSS | low polyreactivity
25 | QVQLVESGGGLGQAGGSLRLSCAASGRTFPIYVMGWYRQAPGKERELVASISASGVRTYFADSVKGRFTISRDNAKNTVYLQMNSLKPEDTAVYYCATQVRRWYSARSPNVRFDYWGQGTQVTVSS | high polyreactivity
26 | QVQLVESGGGLVQAGGSLRLSCAASGSIFVSYAMGWYRQAPGKERELVAAISRSGGRTYYADSVKGRFTISRDNAKNTVYLQMNSLKPEDTAVYYCAADYTKSSSPWPGYYWGQGTQVTVSS | high polyreactivity
27 | QVQLVESCGGLVQAGGSLRLSCAASGSTFRYYPMGWYRPATGKETELVASISIGGGSTYYADSVKGRFTISRDHAKNTVYLQMNSLKPEDTAGYYCAAERTIRAARPFFRTFDYWGQGTQVTVSS | low polyreactivity
28 | QVQLVESGGGLVQAGGSLRLSCASSGRIFQFYAMGWYRQEPGKERELVASISWSGGRTYYADSVKGRFTISRDNAKNTVYLQMNSLNPEDTAVYYCAADYYDYYYWGQGTQVTVSS | high polyreactivity
29 | QVQLVESGGGLVQAGGSLRLSCAASGNIFYTYAMGWYRPAPGKERELVAAITWSGGSTYYADSVKGRFTISRDKAKKTVYLQMNSLKPEDTAVYYCAADSLGYYYSGGYYSIYDHWGQGTQVTVSS | high polyreactivity
30 | QVQLVESGGGLVQAGGSLRLSCAASGSILWYYAMGWYRQAPGKERELVATITSGGSTYYADSVKGRFTMSRDNAKNTVYLQMNILKTEDTAVYYCNADLAVDEYVYWGQGTQVTVSS | low polyreactivity
31 | QVQLVESGGGLVQAGGSLRLSCAASGIIFGFYAMGWYRQAPGKERELVAAITIDGSTYYADSVKGRFTISRDNAKTTVYLQMNILKPEDTAVYYCGAQYLNVYYWEDYLGQGTQVTVSS | low polyreactivity
32 | QVQLVESGGGLDQAGGSLRLSCAASGSIFWSYDRGWYRQAPGKETELVATITSGDSTYYADSVKGRFTISRDNEKNTVYLPMKSLKPEDTAVYYCAAGTFYRPTYCHREYDYWGQGTQVTVSS | low polyreactivity
33 | QVQHVESGRGLVQAGGSLRLICAASGRIFDLNDMGRSRQAPGKERELVAAITSAGSTYYADSVKGRFTISRDNAKNTVYLQMNSLKPEDTAVYYCNKVARGVVRPGRVGSDYWAQGTQVTVSS | high polyreactivity
34 | QVQIVESGGGLVQAGGSLRLSCAASGIIFPVYVMGWYRQAPGKERELVAAISKRGGSTYYADSVKGRFTISRDNAKNTVYLQMNSLKPEDTAVYYCAADRSRHSFYWEYDYWGQGTQVTVSS | high polyreactivity
35 | QVQLVESGGGLVQAGGSLRLSCAASGITFYLNAMGWYRQAPGKDRELVADITVSGGSTYYADSVKGRFTISRDNAKNTVYLQMNSLKPEDTAVYYCAADLTISYSQEYYYWGQGTQVTLSS | low polyreactivity
36 | QVQLVESGGCLVKAGGSLRLSSAASGSTFYYYAMGWYRQAPGKERELVAAITVNGGSTYYADSVKGRFTISRDNANNTVYLQMNSLKPGVTAVYYCAADDTYWVYPYTYSTYEYWGQGNQVTVSS | low polyreactivity
37 | QVQLVESGGGLVQAGGSLRLSCAASGRTFASNAMGWYRQAPGKERELVAAISVTGGRTYYADSVKGRFTISRDNAKNTVYLQMNRLKPEDTAVYYCAKDLTLFSGPFPEFGYWGQGTQVTVSS | low polyreactivity
38 | QVQLVESGGGLVHAGGSLRLSCAASGRISFYYALGWYRQAPGKERALVATISRGDITYYADSVKGRFTISRDNAKNTVYLQLNSLKPEDTAVYYCNARNNYWWYGPGYVYWGQGTQVTVSS | low polyreactivity
39 | QVQLVESGGGLVQAGGSLRLSCAASGRTFIPYAMGWYRQAPGKERELVAAISTTAGTTYYADSVKGRFTISRDNAKNTVYLQMNSLKPEDTAVYYCAARRRWYRRYGGDFWGQGTQVTVSS | high polyreactivity
40 | QVQLVESGGGLVQEGGSLLLSCDASGFTFAVYAMGWYRQAPGKERELVAAITTSGTRTYNADSVKGRFTISRDNAKNTVYLQMNSLKPEDTAVYYCAAVVFRQWPEFDYWGQGTQVTVSS | low polyreactivity
41 | QVQLVESGGALVQAGGSLRLSCAASGSTFVQNAMGWYRQAPGKDRELVAAITIGGGSTYYADSVKGRFTISRDNAKNTVYLQMNSLKPEDTAVYYCAVEVGNPQLAYSYDYWGQGTQVTVSS | low polyreactivity
42 | QVQLVESGGGLVQAGGSLRLSCAASGSIFVPYAMGWYRQAPGKERELVAVIRYRGGTTYYADSVKGRFTLSRDNAKNTVYLQMNSLKPEDTAVYYCEASARRYPPAAGVPYRYDYWGQGTQVTVSS | high polyreactivity
43 | QVQLVESGGGLVQAGGSLRLSCAASGRTFTNNAMGWYRQAPGKERELVARITKTSGSTHYADSVKGRFTNSRDNAKNTVYLQMNSMKPEDTAVYYCATRGHYHGFYYTYPRYDSWGQGTQVTVSS | low polyreactivity
